Results as given in patent publication US20210363241A1.

Key:
[1] = molecular target: Cynomolgus monkey CD226 on the cell surface of stably transfected HEK 293 cells (cynomolgus monkey); test: flow cytometry on HEK 293 cells expressing cynomolgus CD226, control IgG (denominator of the ratio)
[2] = molecular target: Human CD226 on the cell surface of stably transfected HEK 293 cells (human) (UniProt Q15762); test: flow cytometry on HEK 293 cells expressing human CD226, control IgG (denominator of the ratio)
Chain of Human CD226 on the cell surface of stably transfected HEK 293 cells (human) (Q15762 19-336 limits assumed): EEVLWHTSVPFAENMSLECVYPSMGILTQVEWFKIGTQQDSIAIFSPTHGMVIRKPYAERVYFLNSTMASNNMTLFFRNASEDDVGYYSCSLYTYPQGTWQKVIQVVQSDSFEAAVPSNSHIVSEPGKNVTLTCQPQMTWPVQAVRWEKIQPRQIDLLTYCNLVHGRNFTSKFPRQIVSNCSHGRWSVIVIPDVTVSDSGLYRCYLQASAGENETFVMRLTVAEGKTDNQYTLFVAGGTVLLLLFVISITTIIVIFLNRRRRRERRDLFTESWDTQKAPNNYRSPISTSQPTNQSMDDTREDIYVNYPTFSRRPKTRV

Chain of Cynomolgus monkey CD226 on the cell surface of stably transfected HEK 293 cells (cynomolgus monkey) (chain, as listed by the source): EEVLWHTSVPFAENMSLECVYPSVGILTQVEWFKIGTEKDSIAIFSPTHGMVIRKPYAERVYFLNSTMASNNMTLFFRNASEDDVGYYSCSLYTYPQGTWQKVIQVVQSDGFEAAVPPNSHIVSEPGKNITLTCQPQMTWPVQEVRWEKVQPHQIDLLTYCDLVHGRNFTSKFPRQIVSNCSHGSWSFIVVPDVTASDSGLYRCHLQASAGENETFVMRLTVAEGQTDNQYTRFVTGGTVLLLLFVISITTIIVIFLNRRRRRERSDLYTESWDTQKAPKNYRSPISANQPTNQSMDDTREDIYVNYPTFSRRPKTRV

MFI [1]: 3.94 | MFI [2]: 8.98
Substance: Control human IgG1 (antibody)
